According to PMC6539309, “PgMYB2, a MeJA-Responsive Transcription Factor, Positively Regulates the Dammarenediol Synthase Gene Expression in Panax Ginseng”:

Molecular target: PgMYB2 (TF fusion) (Panax ginseng, UniProt A0A1Z1CH15 1-280)
Assay: EMSA; LightShift Chemiluminescent EMSA kit protocol, room temperature, 20 min, native PAGE; protein stored in 20 mM Tris-HCl pH 7.2; binding buffer not stated
Conditions: protein: recombinant; tags: N-terminal trigger factor (TF) + 6xHis (pCold/TF); label: biotin; blunt

Chain of PgMYB2 (TF fusion) (A0A1Z1CH15 entry or part of it): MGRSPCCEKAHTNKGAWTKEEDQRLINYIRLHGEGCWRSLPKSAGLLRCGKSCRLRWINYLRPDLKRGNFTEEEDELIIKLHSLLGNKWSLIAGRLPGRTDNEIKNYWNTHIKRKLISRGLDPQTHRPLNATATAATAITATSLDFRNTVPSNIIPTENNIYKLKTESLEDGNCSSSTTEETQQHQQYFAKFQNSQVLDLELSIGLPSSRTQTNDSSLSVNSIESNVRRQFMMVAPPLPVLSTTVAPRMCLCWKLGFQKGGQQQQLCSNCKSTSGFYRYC

B1: MBSII probe (dsDNA)
DNA 1: GACTGGCATTGATTTAAAAGGCGGT
DNA 2: ACCGCCTTTTAAATCAATGCCAGTC
binding result: binds
